Measured values as given in paper PMC9531428, “The diurnal emission of floral scent in Oncidium hybrid orchid is controlled by CIRCADIAN CLOCK ASSOCIATED 1 (CCA1) through the direct regulation on terpene synthase” (BMC Plant Biology, 2022).

Key:
[1] = biological target: T1, terpene synthase (TPS; OncSBTPS) (Oncidium hybrid cultivar, UniProt A0A3R5SMM9); test: GC-MS (SPME) of reaction products; assay type: biochemical; details: 37 °C, 4 h; products linalool and ocimene
T1 construct: recombinant purified protein
T1 sequence (A0A3R5SMM9 1-551): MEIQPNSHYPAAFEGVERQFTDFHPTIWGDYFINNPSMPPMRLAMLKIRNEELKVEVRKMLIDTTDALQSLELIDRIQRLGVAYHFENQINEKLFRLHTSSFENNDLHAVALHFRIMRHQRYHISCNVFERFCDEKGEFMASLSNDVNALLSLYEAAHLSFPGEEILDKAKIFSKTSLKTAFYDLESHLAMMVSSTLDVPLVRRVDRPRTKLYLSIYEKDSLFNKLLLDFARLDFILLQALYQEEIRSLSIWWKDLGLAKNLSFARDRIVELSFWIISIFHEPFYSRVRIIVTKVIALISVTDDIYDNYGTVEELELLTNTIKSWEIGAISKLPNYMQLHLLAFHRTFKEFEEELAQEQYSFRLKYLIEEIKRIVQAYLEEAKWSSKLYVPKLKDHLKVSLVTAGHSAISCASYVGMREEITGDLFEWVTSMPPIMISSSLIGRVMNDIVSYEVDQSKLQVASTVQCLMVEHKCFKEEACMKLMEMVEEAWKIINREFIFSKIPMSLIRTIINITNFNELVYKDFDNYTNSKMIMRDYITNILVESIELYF

OncSBCCA1 [2] = biological target: T2, OncSBCCA1 (Oncidium hybrid Sharry Baby, UniProt A0A7L5RYG3 1-622); test: EMSA; 0-15 ug CCA1 in 10 uL; BSA; 10 uL with 2 uL 5X buffer (5X: 50 mM Tris-HCl, 750 mM KCl, 2.5 mM EDTA, 62.5% glycerol), i.e. 1X 10 mM Tris-HCl, 150 mM KCl, 0.5 mM EDTA, 12.5% glycerol; BSA; 30 min; pH and temperature not stated; native PAGE in 0.5X TAE, 150 V; details: protein: recombinant; tags: His-tag (pET28a); label: 6-FAM (ligated with T4 ligase)
T2 sequence (A0A7L5RYG3 entry or part of it): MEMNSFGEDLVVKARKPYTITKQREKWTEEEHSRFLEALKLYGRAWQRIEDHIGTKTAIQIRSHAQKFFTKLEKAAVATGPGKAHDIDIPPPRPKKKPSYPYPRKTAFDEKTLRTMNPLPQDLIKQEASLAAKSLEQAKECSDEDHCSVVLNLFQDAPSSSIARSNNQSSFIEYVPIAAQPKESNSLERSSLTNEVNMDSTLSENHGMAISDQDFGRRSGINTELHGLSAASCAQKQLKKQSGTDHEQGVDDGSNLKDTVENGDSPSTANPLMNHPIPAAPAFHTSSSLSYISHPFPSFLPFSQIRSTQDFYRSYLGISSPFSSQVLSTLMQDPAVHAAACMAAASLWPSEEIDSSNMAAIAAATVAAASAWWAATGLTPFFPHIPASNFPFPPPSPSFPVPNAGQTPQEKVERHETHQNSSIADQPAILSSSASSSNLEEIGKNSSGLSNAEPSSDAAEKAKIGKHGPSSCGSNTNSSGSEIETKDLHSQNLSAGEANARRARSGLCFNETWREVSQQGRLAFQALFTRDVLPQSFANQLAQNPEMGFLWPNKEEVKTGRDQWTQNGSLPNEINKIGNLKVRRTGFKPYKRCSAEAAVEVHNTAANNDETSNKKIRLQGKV

OncSBCCA1 [3] = biological target: T2, OncSBCCA1; test: competition; 50x unlabeled competitor abolished the CCA1-probe signal; 10 uL with 2 uL 5X buffer (5X: 50 mM Tris-HCl, 750 mM KCl, 2.5 mM EDTA, 62.5% glycerol), i.e. 1X 10 mM Tris-HCl, 150 mM KCl, 0.5 mM EDTA, 12.5% glycerol; BSA; 30 min; pH and temperature not stated; native PAGE in 0.5X TAE, 150 V; details: protein: recombinant; tags: His-tag (pET28a)

Question: For CC(C)=CCC/C(C)=C/COP(=O)(O)OP(=O)(O)O [GDP, geranyl diphosphate], which “GC-MS (SPME) of reaction products” value [1] is on record?
Answer: TPS recombinant protein was purified, then fed with the precursor GDP

B1: CBS probe (TPS promoter, 24-mer) (dsDNA)
DNA 1: TATTTTAGAGATTTTTACATACAT
DNA 2: ATGTATGTAAAAATCTCTAAAATA
Question: Does B1 bind (OncSBCCA1 [2])?
Answer: binds

B2: unlabeled CBS competitor (24-mer) (dsDNA)
DNA 1: TATTTTAGAGATTTTTACATACAT
DNA 2: ATGTATGTAAAAATCTCTAAAATA
Question: Does B2 bind (OncSBCCA1 [3])?
Answer: binds
